Biological target: the molecule itself
Assay: native gel or EMSA

B1: PksA SAT-KS-MAT tridomain (domain or fragment)
chain: MAQSRQLFLFGDQTADFVPKLRSLLSVQDSPILAAFLDQSHYVVRAQMLQSMNTVDHKLARTADLRQMVQKYVDGKLTPAFRTALVCLCQLGCFIREYEESGNMYPQPSDSYVLGFCMGSLAAVAVSCSRSLSELLPIAVQTVLIAFRLGLCALEMRDRVDGCSDDRGDPWSTIVWGLDPQQARDQIEVFCRTTNVPQTRRPWISCISKNAITLSGSPSTLRAFCAMPQMAQHRTAPIPICLPAHNGALFTQADITTILDTTPTTPWEQLPGQIPYISHVTGNVVQTSNYRDLIEVALSETLLEQVRLDLVETGLPRLLQSRQVKSVTIVPFLTRMNETMSNILPDSFISTETRTDTGRAIPASGRPGAGKCKLAIVSMSGRFPESPTTESFWDLLYKGLDVCKEVPRRRWDINTHVDPSGKARNKGATKWGCWLDFSGDFDPRFFGISPKEAPQMDPAQRMALMSTYEAMERAGLVPDTTPSTQRDRIGVFHGVTSNDWMETNTAQNIDTYFITGGNRGFIPGRINFCFEFAGPSYTNDTACSSSLAAIHLACNSLWRGDCDTAVAGGTNMIYTPDGHTGLDKGFFLSRTGNCKPYDDKADGYCRAEGVGTVFIKRLEDALADNDPILGVILDAKTNHSAMSESMTRPHVGAQIDNMTAALNTTGLHPNDFSYIEMHGTGTQVGDAVEMESVLSVFAPSETARKADQPLFVGSAKANVGHGEGVSGVTSLIKVLMMMQHDTIPPHCGIKPGSKINRNFPDLGARNVHIAFEPKPWPRTHTPRRVLINNFSAAGGNTALIVEDAPERHWPTEKDPRSSHIVALSAHVGASMKTNLERLHQYLLKNPHTDLAQLSYTTTARRWHYLHRVSVTGASVEEVTRKLEMAIQNGDGVSRPKSKPKILFAFTGQGSQYATMGKQVYDAYPSFREDLEKFDRLAQSHGFPSFLHVCTSPKGDVEEMAPVVVQLAITCLQMALTNLMTSFGIRPDVTVGHSLGEFAALYAAGVLSASDVVYLVGQRAELLQERCQRGTHAMLAVKATPEALSQWIQDHDCEVACINGPEDTVLSGTTKNVAEVQRAMTDNGIKCTLLKLPFAFHSAQVQPILDDFEALAQGATFAKPQLLILSPLLRTEIHEQGVVTPSYVAQHCRHTVDMAQALRSAREKGLIDDKTLVIELGPKPLISGMVKMTLGDKISTLPTLAPNKAIWPSLQKILTSVYTGGWDINWKKYHAPFASSQKVVDLPSYGWDLKDYYIPYQGDWCLHRHQQDCKCAAPGHEIKTADYQVPPESTPHRPSKLDPSKEAFP
stoichiometry N: 2

From PMC2872118 (Nature, 2009)
